For the experiment, the target named is PD-L1 CAR (2nd generation CAR, PDL1-CD28-CD3ζ) expressed on NK-92 cells (human) (UniProt P01732). Kind of experiment: cell-based or functional assay.

The source of these data is US20240216509A1.

Sequence of UniProt P01732 (P01732 other isoform, or with tags, fused parts or gaps limits assumed): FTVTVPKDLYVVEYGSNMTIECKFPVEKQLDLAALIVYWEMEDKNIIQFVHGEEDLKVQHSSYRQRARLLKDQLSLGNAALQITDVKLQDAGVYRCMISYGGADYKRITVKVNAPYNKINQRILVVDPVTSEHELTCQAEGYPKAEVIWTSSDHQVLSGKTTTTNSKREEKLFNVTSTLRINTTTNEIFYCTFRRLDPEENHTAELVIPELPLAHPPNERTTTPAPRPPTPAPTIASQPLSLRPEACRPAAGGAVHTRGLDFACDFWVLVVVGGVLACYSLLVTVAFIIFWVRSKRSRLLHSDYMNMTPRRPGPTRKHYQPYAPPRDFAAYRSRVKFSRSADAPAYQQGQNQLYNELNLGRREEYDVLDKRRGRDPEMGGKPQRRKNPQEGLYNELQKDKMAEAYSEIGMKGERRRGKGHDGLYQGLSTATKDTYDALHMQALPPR

As to “recombinant human PD-1-Fc fusion protein (rhPD-1-Fc) (from UniProt Q15116 25-167)”, the EC50 of degranulation of CAR NK-92 over increasing concentrations of plate-bound rhPD-1-Fc turned out to be 0.61 µg/mL.
